B1: bsSecA783: carboxy-terminally truncated B. subtilis SecA lacking the CTL domain (protein, UniProt P28366 1-783, looked up, fragment)
chain: MLGILNKMFDPTKRTLNRYEKIANDIDAIRGDYENLSDDALKHKTIEFKERLEKGATTDDLLVEAFAVVREASRRVTGMFPFKVQLMGGVALHDGNIAEMKTGEGKTLTSTLPVYLNALTGKGVHVVTVNEYLASRDAEQMGKIFEFLGLTVGLNLNSMSKDEKREAYAADITYSTNNELGFDYLRDNMVLYKEQMVQRPLHFAVIDEVDSILIDEARTPLIISGQAAKSTKLYVQANAFVRTLKAEKDYTYDIKTKAVQLTEEGMTKAEKAFGIDNLFDVKHVALNHHINQALKAHVAMQKDVDYVVEDGQVVIVDSFTGRLMKGRRYSEGLHQAIEAKEGLEIQNESMTLATITFQNYFRMYEKLAGMTGTAKTEEEEFRNIYNMQVVTIPTNRPVVRDDRPDLIYRTMEGKFKAVAEDVAQRYMTGQPVLVGTVAVETSELISKLLKNKGIPHQVLNAKNHEREAQIIEEAGQKGAVTIATNMAGRGTDIKLGEGVKELGGLAVVGTERHESRRIDNQLRGRSGRQGDPGITQFYLSMEDELMRRFGAERTMAMLDRFGMDDSTPIQSKMVSRAVESSQKRVEGNNFDSRKQLLQYDDVLRQQREVIYKQRFEVIDSENLREIVENMIKSSLERAIAAYTPREELPEEWKLDGLVDLINTTYLDEGALEKSDIFGKEPDEMLELIMDRIITKYNEKEEQFGKEQMREFEKVIVLRAVDSKWMDHIDAMDQLRQGIHLRAYAQTNPLREYQMEGFAMFEHMIESIEDEVAKFVMKAEIENN

Experiments:
[1] = molecular target: E. coli alkaline phosphatase signal peptide SP22, IANBD-labeled (E. coli); experiment: fluorescence polarisation
[2] = system: bsSecA783 F652-GS(10)-PhoAss Cys22-IAEDANS; experiment: Signal peptide competition-binding assay by FRET; set-up: species or system B. subtilis; conditions: 5-fold molar excess of unlabeled SP22; data not shown
[3] = system: bsSecA783 F652-GS(5)-KRRLamBss Cys29-IAEDANS; experiment: Signal peptide competition-binding assay by FRET; set-up: species or system B. subtilis; conditions: 5-fold molar excess of unlabeled SP22; data not shown
IANBD-labeled SP22 = experiment: SecA-signal peptide binding affinity by fluorescence anisotropy; set-up: species or system E. coli

Row | Molecule | Kd [1] [µM] | other results
1 | bsSecA783-PhoAss (from UniProt P28366 1-783) | 4.5 | –
2 | MKQSTIALALLPLLFTPVTKAC-NH2 [SP22] | – | reduction of energy transfer efficiency [2]: approximately 50%; reduction of energy transfer efficiency [3]: approximately 50%
3 | bsSecA783-KRRLamBss (from UniProt P28366 1-783) | 13 | –
4 | bsSecA841-PhoAss (from UniProt P28366 1-841) | 4.6 | –
5 | bsSecA841-KRRLamBss (from UniProt P28366 1-841) | 14 | –
6 | bsSecA841 (from UniProt P28366 1-841) (enzyme) | 1.9 | –
7 | B1 | – | higher affinity for SP22 compared to full-length bsSecA841 (IANBD-labeled SP22): approximately 4 fold

— publication PMC4883009 (Biochemistry, 2016)
